First the molecules themselves.
B1: NIH-CoVnb-103 (VHH)
VHH: DVQLQESGGGLVQPGGSLRLSCAASGLTLDYYTIGWFRQAPGKEREGVSCISSSDDSTYYADSVKGRFTISRDNAKNTVYLQMNSLKPEDTAVYYCATAPGTYYKGSYYPMCHYYGMDYWGKGTQVTVSS
B2: NIH-CoVnb-113 (VHH)
VHH: DVQLQESGGGLVQPGGSLRLSCAASGLTLDYYAIGWFRQAPGKEREGVSCISSSDGSTYYADSVKGRFTTSRDNAKNTVYLQMNSLKPEDTAVYYCAAVPSTYYSGTYYYTCHPGGMDYWGKGTLVTVSS
B3: NIH-CoVnb-108 (VHH)
VHH: B2 VHH with L27F, S53N, D55G, T107S, L125Q
B4: NIH-CoVnb-109 (VHH)
VHH: B2 VHH with P14S, L27F, S52T, S53N, A98S, V99F, T107S, L125Q

Residue numbers refer to the chain shown, from its start.

This passage reports Kd and koff results from paper PMC7755911 (2020).

In the first test the target is T1, Biotinylated SARS-CoV-2 S protein RBD with a C-terminal AviTag (SARS-CoV-2, UniProt P0DTC2 319-541). Put plainly: BLI.
For the molecule B1, the affinity, expressed as Kd, was 9.43 nM.

B2 had a Kd of 8.19 nM.

B3 returned a Kd of 26.6 nM.

B4 showed a Kd of 58.5 nM.

A further test concerns the target T1, Biotinylated SARS-CoV-2 S protein RBD …. Put plainly: BLI. This is another data set of the same source.
As for B1, the koff was 0.00286 s⁻¹.

Turning to B2, the koff amounted to 0.000804 s⁻¹.

Molecule B3 had a koff of 0.00109 s⁻¹.

For B4, the koff was determined as 0.00188 s⁻¹.
